Measured values reported in US20210163594A1 (INVENRA, published 2021).

T1: CD3
T1 chain: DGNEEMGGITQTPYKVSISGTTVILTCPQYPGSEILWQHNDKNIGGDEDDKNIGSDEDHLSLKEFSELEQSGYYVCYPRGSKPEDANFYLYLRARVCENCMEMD

B1: BC1 (bispecific antibody)
chain 1: not shown
chain 2: EVQLVESGGGLVQPGGSLRLSCAASGFTFSDYDIHWVRQAPGKGLEWVGDITPYDGTTNYADSVKGRFTISADTSKNTAYLQMNSLRAEDTAVYYCARLVGEIATGFDYWGQGTLVTVSSASPREPQVYTDPPSRDELTKNQVSLTCLVKGFYPSDIAVEWESNGQPENNYKTTPPVLDSDGSFFLYSKLTVDKSRWQQGNVFSCSVMHEALHNHYTQKSLSLSGEC
chain 3: not shown
chain 4: QVQLVESGGGVVQPGRSLRLDCKASGITFSNSGMHWVRQAPGKGLEWVAVIWYDGSKRYYADSVKGRFTISRDNSKNTLFLQMNSLRAEDTAVYYCATNDDYWGQGTLVTVSSASTKGPSVFPLAPSSKSTSGGTAALGCLVKDYFPEPVTVSWNSGALTSGVHTFPAVLQSSGLYSLSSVVTVPSSSLGTQTYICNVNHKPSNTKVDKKVEPPKSC
notes: also called bivalent bispecific B-Body BC1; bivalent 1×1 construct BC1
B2: non-mutagenized SP34-89 monovalent B-Body (bispecific antibody, V domains shown)
VH: EVQLVESGGGLVQPGGSLRLSCAASGFTFNTYAMNWVRQAPGKGLEWVARIRSKYNNYATYYADSVKGRFSISRDDSKNTAYLQMNSLRAEDTAVYYCVRHGNFGNSYVSWFAYWGQGTLVTV
VL: QAVVTQEPSLTVSPGGTVTLTCRSSTGAVTTSNYANWVQQKPGQAPRGLIGGTNKRAPWTPARFSGSLLGGKAALTITGAQAEDEADYYCALWYSNLWVFGGGTKLTVL
notes: VL and VH were cloned into one arm of a 1×1 BC1 B-Body; Constant parts as in the BC1 scaffold; also called SP34-89 VL-WT/SP34-89 VH-WT

Tests used:
CTLA4 = CTLA4 (UniProt P16410 36-161, limits assumed); experiment: BLI (Octet), antigen immobilized, B-Body as analyte
Chain of CTLA4 (P16410 36-161 limits assumed): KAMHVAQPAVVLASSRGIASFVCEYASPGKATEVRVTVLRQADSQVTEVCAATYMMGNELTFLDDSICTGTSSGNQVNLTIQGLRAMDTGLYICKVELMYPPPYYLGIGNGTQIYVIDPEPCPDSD
Excerpt: In each instance, the antigen is immobilized and the B-Body is the analyte.

CD3 = target: T1, CD3; experiment: BLI (Octet), two-fold serial dilution (200-12.5 nM) of the monovalent B-Body

Row | Binder | binding result (CTLA4) | Kd (CD3) [nM] | koff (CD3) [s⁻¹] | kon (CD3) [M⁻¹ s⁻¹]
1 | B1 | no binding | – | – | –
2 | B2 | – | 23 | 0.0071 | 300000
